The text below walks through data of paper doi:10.1101/583542 (bioRxiv, 2019).

What all share (experiment): split reporter
Assay [1] has as its target NRT2.1 S501A, rBiFC fusion (Arabidopsis thaliana, UniProt O82811 1-530, S501A).
Assay [2] has as its target NRT2.1 wild type, rBiFC fusion (Arabidopsis thaliana, UniProt O82811 1-530).
Assay [3] has as its target NRT2.1 S501D, rBiFC fusion (Arabidopsis thaliana, UniProt O82811 1-530, S501D).

Sequence of NRT2.1 S501D, rBiFC fusion (O82811 whole entry S501D, the tested form may be a part): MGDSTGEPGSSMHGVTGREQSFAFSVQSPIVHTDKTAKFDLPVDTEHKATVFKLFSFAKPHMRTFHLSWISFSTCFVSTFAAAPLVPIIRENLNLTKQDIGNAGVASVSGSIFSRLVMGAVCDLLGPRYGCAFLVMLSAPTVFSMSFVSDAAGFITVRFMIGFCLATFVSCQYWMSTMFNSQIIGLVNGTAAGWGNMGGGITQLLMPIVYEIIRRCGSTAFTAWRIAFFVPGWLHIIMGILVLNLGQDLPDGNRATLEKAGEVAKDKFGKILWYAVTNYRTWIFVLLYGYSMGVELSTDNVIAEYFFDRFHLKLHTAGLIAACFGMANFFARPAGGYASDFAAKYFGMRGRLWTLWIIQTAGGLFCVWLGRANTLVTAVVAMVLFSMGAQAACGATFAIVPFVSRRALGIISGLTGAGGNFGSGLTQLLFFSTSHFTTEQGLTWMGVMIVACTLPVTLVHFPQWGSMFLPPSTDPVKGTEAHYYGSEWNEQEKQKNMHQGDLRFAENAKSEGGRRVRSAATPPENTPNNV
Sequence of NRT2.1 wild type, rBiFC fusion (O82811 whole entry, the tested form may be a part): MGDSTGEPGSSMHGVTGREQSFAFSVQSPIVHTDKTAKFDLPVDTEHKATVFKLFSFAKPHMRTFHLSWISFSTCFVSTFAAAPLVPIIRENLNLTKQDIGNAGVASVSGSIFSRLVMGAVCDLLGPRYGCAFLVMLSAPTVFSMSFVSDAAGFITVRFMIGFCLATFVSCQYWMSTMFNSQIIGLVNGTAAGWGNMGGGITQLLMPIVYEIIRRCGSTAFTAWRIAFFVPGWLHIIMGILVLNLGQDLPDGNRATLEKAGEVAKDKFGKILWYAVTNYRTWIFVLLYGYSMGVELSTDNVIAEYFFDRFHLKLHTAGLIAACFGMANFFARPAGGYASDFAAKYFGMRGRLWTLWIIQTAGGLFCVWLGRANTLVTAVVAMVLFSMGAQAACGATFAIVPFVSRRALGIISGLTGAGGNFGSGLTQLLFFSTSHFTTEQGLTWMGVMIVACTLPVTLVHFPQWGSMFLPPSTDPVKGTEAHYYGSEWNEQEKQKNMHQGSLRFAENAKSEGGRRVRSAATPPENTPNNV
Sequence of NRT2.1 S501A, rBiFC fusion (O82811 whole entry S501A, the tested form may be a part): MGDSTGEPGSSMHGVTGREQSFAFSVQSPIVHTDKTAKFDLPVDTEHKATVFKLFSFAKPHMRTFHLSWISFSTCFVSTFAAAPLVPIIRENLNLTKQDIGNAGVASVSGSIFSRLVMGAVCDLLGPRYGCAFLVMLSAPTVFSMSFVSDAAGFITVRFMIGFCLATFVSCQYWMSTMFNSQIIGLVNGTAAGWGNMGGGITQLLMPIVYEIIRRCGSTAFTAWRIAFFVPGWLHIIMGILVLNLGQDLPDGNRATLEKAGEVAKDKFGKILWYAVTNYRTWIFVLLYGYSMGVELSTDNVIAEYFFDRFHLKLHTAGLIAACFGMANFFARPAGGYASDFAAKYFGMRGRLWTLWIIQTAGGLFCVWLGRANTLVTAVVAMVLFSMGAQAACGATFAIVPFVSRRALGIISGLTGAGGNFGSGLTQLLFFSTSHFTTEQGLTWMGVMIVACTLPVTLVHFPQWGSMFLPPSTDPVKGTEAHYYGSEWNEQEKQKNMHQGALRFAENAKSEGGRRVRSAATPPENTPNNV

B1: NAR2.1, rBiFC fusion (natural protein, Arabidopsis thaliana, UniProt Q9FGS5 23-210, looked up)
chain: AEKVRLFKELDKGALDVTTKPSREGPGVVLDAGKDTLNITWTLSSIGSKREAEFKIIKVKLCYAPPSQVDRPWRKTHDELFKDKTCPHKIIAKPYDKTLQSTTWTLERDIPTGTYFVRAYAVDAIGHEVAYGQSTDDAKKTNLFSVQAISGRHASLDIASICFSVFSVVALVVFFVNEKRKAKIEQSK
B1: the entries for the “YFP fluorescence as percent of RFP fluorescence (rBiFC)” value in assay [1], in assay [2] and in assay [3] were ~50 % of RFP fluorescence, ~40 % of RFP fluorescence and ~50 % of RFP fluorescence, respectively.
